# Test results taken from patent US20030148312A1, “Method for testing for allergic disease” (NATIONAL CENTER FOR CHILD HEALTH AND DEVELOPMENT, priority 2001, published 2003).
# B1: IL-4: cytokine used for stimulation of T cells (protein, UniProt P05112 25-153, looked up)
# Interleukin-4: HKCDITLQEIIKTLNSLTEQKTLCTELTVTDIFAASKNTTEKETFCRAATVLRQFYSHHEKDTRCLGATAQQFHRHKQLIRFLKRLDRNLWGLAGLNSCPVKEANQSTLENFLERLKTIMREKYSKCSS
# B2: IFN-γ: cytokine used for stimulation of T cells (protein, UniProt P01579 24-161, looked up)
# Interferon gamma: QDPYVKEAENLKKYFNAGHSDVADNGTLFLGILKNWKEESDRKIMQSQIVSFYFKLFKNFKDDQSIQKSVETIKEDMNVKFFNSNKKKRDDFEKLTNYSVTDLNVQRKAIHELIQVMAELSPAAKTGKRKRSQMLFRG
# What was measured:
# MAL = test: Expression induction experiment with cytokines in cultured T cells derived from peripheral blood (MAL mRNA); assay type: cell-based, human; details: 0-48 h, IL-4 2 ng/ml, IL-12 2 ng/ml, IFN-γ 200 ng/ml, IFN-α 100 IU/ml
# Procedure: Effects of various cytokines on the MAL expression level were examined. T cells were separated from the peripheral blood sample from an normal healthy subject using the method described in Example 6, and stimulated with the anti-CD3 antibody to induce the cell growth. That is, on a culture plate which was surface-treated with the anti-CD3 antibody, the separated T cells were cultured in a 5% FCS-containing RPMI1640 medium (1 mM sodium pyruvate, 2 mM L-glutamine, 10 U/ml penicillin, 100 μg/ml streptomycin, and 200 U/ml IL-2) at a density of 5×10^5 cells/ml for 5 days. Grown T cells were diluted with the same medium to a density of 5×10^5 cells/ml, and cultured on a non-surface treated plate for further 3 days. The resulting cells were washed with the medium without IL-2, suspended in the medium (without IL-2) supplemented with cytokine for the stimulation at a density of 1×10^6 cells/ml, and cultured under the stimulation for a predetermined period of time. Cells were then collected to prepare RNA. Cytokines used are shown below:
# The same medium as that described in Example 3 was used. During the cultivation for 0˜48 h, mRNA for MAL was induced in the case of stimulation with IL-4. […] Induction of MAL expression with IL-4 may indicate the association of MAL with the action of IL-4 in allergic diseases. For example, MAL may act during the differentiation process of T cell into Th2, and also may associate with the production of Th2 cytokines, IL-4, IL-5, and IL-10.
# MAL protein [1] = test: Induction of MAL protein expression in Jurkat cell line (Western blotting of raft fraction); assay type: cell-based, human; details: Jurkat cells, IL-4 2 ng/ml, 32 hours, raft fractions 4, 5, 6
# Procedure: Cell lysate was prepared from Jurkat cells that had been stimulated with IL-4 (2 ng/ml) for 32 hours, and subjected to sucrose density gradient centrifugation according to the method of Fernando Martin-Belmonte et al. (Fernando Martin-Belmonte, Rosa Puertollano, Jaime Millan, and Miguel A. Alonso. The MAL Proteolipid Is Necessary for the Overall Apical Delivery of Membrane Protein in the Polarized Epithelial Madin-Darby Canine Kidney and Fischer Rat Thyroid Cell Lines. Molecular Biology of the Cell 11, 2033-2045, June 2000) to separate the raft fraction (fractions 4, 5, and 6). Proteins in each fraction were separated by SDS polyacrylamide gel electrophoresis, and analyzed by Western blotting using antibody against MAL peptide or that against LAT (linker for activation of T cells).
# MAL protein [2] = test: Induction of MAL protein expression in human peripheral blood T-cells (Western blotting of raft fraction); assay type: cell-based; details: IL-4 2 ng/ml, 41 hours, fraction 4
# Procedure: Human peripheral blood cells that had been cultured and propagated were similarly stimulated as in Example 7 with IL-4 (2 ng/ml) for 41 hours, and then the MAL protein expression in the raft fraction (fraction 4) was examined by Western blotting. As a result, the induction of the MAL protein expression by IL-4 was confirmed also in the raft of human peripheral blood T-cells (FIG. 8).
Molecule,induction of mRNA for MAL (MAL),expression of MAL protein in the raft (MAL protein [1]),MAL protein expression in the raft fraction (MAL protein [2])
IFN-α,No such action was observed,–,–
B1,induced,increased,induction
B2,No such action was observed,–,–
